Assay results reported in the RNAGym collection of RNA variant scans (doi:10.7554/elife.80360).

B1: Hairpin Ribozyme (parent)
chain: GUCCUCUUUCACGUGCGCGUGAAAGAGAGAAGUGAACCAGAGAAACACACGUUGUGGUAUAUUACCUGGUA

Variants of: B1
Assay: self-cleavage, relative activity (ratio to wild type); higher = more cleavage; co-transcriptional

Variant | self-cleavage
GUCCUGUUUCACGUGCGCGUGAAAGAGAGAAGUGAACCAGAGAAACACACGUUGUGGUAUUUUACCUGGUA [C6G A61U] | 0.183
GUCCUCUUUCACGUGCGCGUGAAAGAGUGAAGUGAACCAGAGAUACACACGUUGUGGUAUAUUACCUGGUA [A28U A44U] | 0.0894
GUCCUCUUUCACGAGCGCGUGAAUGAGAGAAGUGAACCAGAGAAACACACGUUGUGGUAUAUUACCUGGUA [U14A A24U] | 0.644
GUCCUCUUUCACGUGCGCGUGAAAGAGAGAGGUGAACCAGAGAAACACACGUUGUGGUAUAAUACCUGGUA [A31G U62A] | 0.127
GUCCUCUUUCACGUGCGCGUGAAAGAGAGAAGUGAACCAUAGAAACACACGUUGUGGUAUAUUACCUGUUA [G40U G69U] | 0.0875
GUCCUCUUUCACGUGCGCGUGAAAGAGAGAAGUGAACCAGAGAAACACCCGUUGUGGUAUAUUACGUGGUA [A49C C66G] | 0.301
GUCCUCUUUCACGUACGCGUGAAAGAGAGGAGUGAACCAGAGAAACACACGUUGUGGUAUAUUACCUGGUA [G15A A30G] | 0.187
GUCCUCUUUCACGUGCGCGUGAAAGAGAGAAGUGAUCCAGAGAAACACACGUCGUGGUAUAUUACCUGGUA [A36U U53C] | 0.593
GUCCACUUUCACGUGCGCGUGAAAGAGAGAAGUGAACAAGAGAAACACACGUUGUGGUAUAUUACCUGGUA [U5A C38A] | 0.142
GUCCUCUUACACGUGCGCGUGAAAGAGAGAAGUGAACCAGAGAAACACACGUUGUGGUAUAUUACCUGCUA [U9A G69C] | 0.274
GUACUCUUUCACGUGCGCGUGAAAGAGAGAAGUGAACCAGAGAAACACAAGUUGUGGUAUAUUACCUGGUA [C3A C50A] | 0.145
GUCCUCUUUCACGUGCGCGUGAAAGAGAGAAGUGAACCAGAGACACACCCGUUGUGGUAUAUUACCUGGUA [A44C A49C] | 0.103
GUCCUCUGUCACGUGCGCGUGAAAGAGAGAAGAGAACCAGAGAAACACACGUUGUGGUAUAUUACCUGGUA [U8G U33A] | 0.136
GUCCUCUGUCACGUGCGCGUGAAAGAGAGAAGUGAACCAGAGAAACACACGUUGUGGUCUAUUACCUGGUA [U8G A59C] | 0.136
GUCCUCUUUCACGUGCCCGUGAAAGAGAGAAGUGAACCAGAGAAACACACGUUGUGGUGUAUUACCUGGUA [G17C A59G] | 0.171
GUCCUCUUUCGCGUGCGCGUGAACGAGAGAAGUGAACCAGAGAAACACACGUUGUGGUAUAUUACCUGGUA [A11G A24C] | 0.746
GGCCUCUUUCACGUGCGCGUGAAUGAGAGAAGUGAACCAGAGAAACACACGUUGUGGUAUAUUACCUGGUA [U2G A24U] | 0.238
GUCCUCUUUCACGUGCGCGUGAAAGAGAGAAGUGGACCAGAGAAACACACGUUGUGGUAGAUUACCUGGUA [A35G U60G] | 0.443
GUCCUCUUUCACGUGCGCGUGAAAGAGGGAAGUGAACCAGAGAAACACACGUUGUGGUAUAUGACCUGGUA [A28G U63G] | 0.223
GUCCUCUUUCACGCGCGCGUGAAAGAGAGAAGUGAACCAGAGAAACACAAGUUGUGGUAUAUUACCUGGUA [U14C C50A] | 0.0893
GUCCUCUUUCACGUGCGCGUGAAAGAGAGAAGUGAACCAGAGAAGCACACGUUGUGGUAUAUCACCUGGUA [A45G U63C] | 0.0324
GUCCUCUUUCACGUGCGCGUGAAAGAGAGAAGUGAACCAGAGAAACACACGGUGUGGUAUAUUACCUGUUA [U52G G69U] | 0.27
GUCCUCUUUCACGUGCGCGUGAAAGAGAGAAGUCAACCAGAGAAACACAUGUUGUGGUAUAUUACCUGGUA [G34C C50U] | 1.36
GUCCUCUUUCAGGUGCGCGUGAAAGAGAGAAGUCAACCAGAGAAACACACGUUGUGGUAUAUUACCUGGUA [C12G G34C] | 1.15
GUCCUCUUUCACGUGCGCGUGAAAGAGAGAAGUGAACCAGAGAAACACACGUGGUGGUAAAUUACCUGGUA [U53G U60A] | 0.44
GUCCUCUUUCACGUGCGCGUGAAAGAGUGAAGUGAACCAGAGAAACACACGUUGUGGUAUAUUACCUCGUA [A28U G68C] | 0.151

Variant | self-cleavage
CUCCUCUUUCACGUGCGCGUGAAAGAGAGAAGUGAACCAGAGAAACACACGUUGUGGCAUAUUACCUGGUA [G1C U58C] | 0.16
GUCCUCUUUCACGUGCGCGUGAAAGAGAGAAGUGAACCAGAGGAACACACGUUGUGGUAUAUUACUUGGUA [A43G C66U] | 0.139
GUCCUCUUUCACGUGCGCGUGAAAGAGAGCAGUGAACCAGAGAAACACACGUUGUGGUAUAUUACCUGCUA [A30C G69C] | 0.318
GUCCUCUUUCACGUACGCGUGAAAGAGAGAAGUGAACCAGAGAAACACACGUUGUGGUAUAUUACUUGGUA [G15A C66U] | 0.35
GUCCUCUUUCACGUGCGCGUGUAAGAGAGAAGUGAACCAGAGAAACACACGUUGUGGUAUAUUGCCUGGUA [A22U A64G] | 0.474
GUCCUCUUUCACGUGCACGAGAAAGAGAGAAGUGAACCAGAGAAACACACGUUGUGGUAUAUUACCUGGUA [G17A U20A] | 0.759
GUCCUCUUUCACGUGCGCGUGAAAGAGAGAAGUGAACCAGUGUAACACACGUUGUGGUAUAUUACCUGGUA [A41U A43U] | 0.187
GUCCUCUUUCACGUGCGCGUGAAAGAGAGAAGUGAACCAGAGAAACACACGUUGUUGUAUAUUACCUGCUA [G56U G69C] | 0.124
GUCCUCUUUCACGUGCGCGUGAAAGAUAGAAGUGAACCAGAGAAACACACGUUGUGGUAUAUUACCUCGUA [G27U G68C] | 0.102
GUCCUCUUUCACGUGCGCGUGAAAGAGAGAAGUGAACCAGAGAAACACGCGUUGUGGUAUAUUAGCUGGUA [A49G C65G] | 0.184
GUCCUCUUUCACGUGCGCGUGAAAGAGAGAAGUGAUACAGAGAAACACACGUUGUGGUAUAUUACCUGGUA [A36U C37A] | 0.184
GUCCUCCUUCACGUGCGCGUGAAAGAGAUAAGUGAACCAGAGAAACACACGUUGUGGUAUAUUACCUGGUA [U7C G29U] | 0.178
GUCCUCUUUCACGUGCGCGUGAAAGAGAGAUGUGAGCCAGAGAAACACACGUUGUGGUAUAUUACCUGGUA [A31U A36G] | 0.151
GUCCUCUUUCACGUGCGCGUGAAAGAGAGAAGUGAACCAGACAAACAUACGUUGUGGUAUAUUACCUGGUA [G42C C48U] | 0.143
GUCCUCUUUCACGUGCGCGUGAAAUAGAGAAGUGAGCCAGAGAAACACACGUUGUGGUAUAUUACCUGGUA [G25U A36G] | 0.639
GUCAUCUUUCACGUCCGCGUGAAAGAGAGAAGUGAACCAGAGAAACACACGUUGUGGUAUAUUACCUGGUA [C4A G15C] | 0.358
GUCCUCUUUCCCGUGCGCGUGAAAGAGAGAAGUGAACCAGAGAAACACACGUUGUGGUAUAUUACCGGGUA [A11C U67G] | 0.168
GUCCUCUUUCACGUGCGCGUCAAAGAGAGAAGUGAACCAGAGAAACACACGUUGUGGUAUAUUACAUGGUA [G21C C66A] | 0.27
GUCCUCUUUCACGUGCGCGUGAAAGAGAGAAGUGAACCAGUGAAACACACGUGGUGGUAUAUUACCUGGUA [A41U U53G] | 1.16
GUCCUCUUUCACGUGCGCGUGAAAGAGAGAAGUGAAACAGUGAAACACACGUUGUGGUAUAUUACCUGGUA [C37A A41U] | 0.429
GUCCUCUUUCACGUGCGCGUGAAAGAGUGAAGUGAACCAGAGAAACACACGUUGUGGUAUAUUACGUGGUA [A28U C66G] | 0.302
GUCCUCUUUCACGUGCGCGUGACAGAGAGAAGUGAACCAGAGAAACACACGUAGUGGUAUAUUACCUGGUA [A23C U53A] | 0.757
GUCCUCUUUCACGUGCGCGUGAAAGAGAGAAGUGACCCUGAGAAACACACGUUGUGGUAUAUUACCUGGUA [A36C A39U] | 0.137
GUCCUCUUUCACGUGCGCGUGAAAGAGAGAAGUGAACCAGAGAAACACAGGUUGUGGUAUAUUACAUGGUA [C50G C66A] | 0.193
GUCCUCUUUCACGUGAGCGUGAAAGAGAGAAGUGAACCAUAGAAACACACGUUGUGGUAUAUUACCUGGUA [C16A G40U] | 0.147
GUCCUCUUUCACGUGCGCUGGAAAGAGAGAAGUGAACCAGAGAAACACACGUUGUGGUAUAUUACCUGGUA [G19U U20G] | 0.707

Variant | self-cleavage
GUCCUCUUUCACCUGCGCGUGAAAGAGAGAAGUGAACCAGAGAAACGCACGUUGUGGUAUAUUACCUGGUA [G13C A47G] | 0.21
GUCCUCUUUCACGUGCGCGUGAAAGAGAGAAGUGAACCAGAGAAACACACGUAGUGGUAUAUUACCUGGAA [U53A U70A] | 0.987
GUCCUCUUUCACGUGCGCGUGAAAGAGAGAAUGGAACCAGAGAAACACACGUUGUGGUAUAUUACCUGGUA [G32U U33G] | 0.0653
GUCGUCUUUCACGUGCGCGUGAAAGAGAGAAGUGAACCAGAGUAACACACGUUGUGGUAUAUUACCUGGUA [C4G A43U] | 0.053
GUCCUCUUUCACGUGCGCGUGAAAGAGAGAAUUGAACCAAAGAAACACACGUUGUGGUAUAUUACCUGGUA [G32U G40A] | 0.122
GUCCUCUUUCACGUGCGCGUGAAAGAGAGAAGGGAACCAGAGAAACAUACGUUGUGGUAUAUUACCUGGUA [U33G C48U] | 0.112
GUCCUCUUUCACGUGCGCGUGAAAGAGAGAAGUGAACCAGAGAAACACACAUUGUGAUAUAUUACCUGGUA [G51A G57A] | 0.142
GUCCUCUUUCACGUGCGCGUGAAAGAGAGAAGUGAACCAGAGAAUCACACGUUGUGGUAUGUUACCUGGUA [A45U A61G] | 0.184
GUCCUCUUUCACGUGCGCGUGAAAGUGAGAAGUGAACCAGAGAAACACACGUUGUGGUAUACUACCUGGUA [A26U U62C] | 0.192
GUCCUCUUUCACAUGCGCGUGAAAGAGAGAAGUGAACCAGAGAAACACACGUGGUGGUAUAUUACCUGGUA [G13A U53G] | 0.597
GUCCUCUUUCACGUGCGCGUGAAAGAGAGAAGUGAACCAGAGAGACACAAGUUGUGGUAUAUUACCUGGUA [A44G C50A] | 0.198
CUCCUCUUUCACGUGCGCGUGAAAGAGAGAAGUGAACCAGAGAAACACACGUUGUGGUAUAUUCCCUGGUA [G1C A64C] | 0.186
GUCCUCUUUCACGUGCGCGUGAAAGAGAGAAGUGAAAAAGAGAAACACACGUUGUGGUAUAUUACCUGGUA [C37A C38A] | 0.144
GUCCUCUUUCACGUGCGCGUGCAAGAGAGAAGUGAACCAGAGAAACACACGCUGUGGUAUAUUACCUGGUA [A22C U52C] | 1.09
GUCCUCUUUCACGUGCGCGUAAAAGAGAGAAGUGAACCAGAGAAACACACGUUGUGGUUUAUUACCUGGUA [G21A A59U] | 0.142
GUCCUCGUUCACGUGCGCGUGAAAGAUAGAAGUGAACCAGAGAAACACACGUUGUGGUAUAUUACCUGGUA [U7G G27U] | 0.226
GUCCUCUUUCACGUGCGCGUGAAAGAGAGAUGUUAACCAGAGAAACACACGUUGUGGUAUAUUACCUGGUA [A31U G34U] | 0.167
GUCCUCUUUCACGUGUGCGUGAAAGAGAGAAGUGAACCAGAGAAACACACGUUGAGGUAUAUUACCUGGUA [C16U U55A] | 0.357
GUCCUCUUUCACGUGCGCGUGAAAGAGAGAAGUGAACCAGAGAAACACUCGUUGUGGUAUAUUAGCUGGUA [A49U C65G] | 0.171
GUCCUCUUUCCCGUGCGCGUGAAAGAGAGAAGUGAACCAGAGAAACACACGUUGCGGUAUAUUACCUGGUA [A11C U55C] | 0.183
GUCCUCUUUCACGCGCGCGUGAAAGUGAGAAGUGAACCAGAGAAACACACGUUGUGGUAUAUUACCUGGUA [U14C A26U] | 0.418
GUCCUCUUUCACGUGCGCGUGAAAGAGAGAGGUGACCCAGAGAAACACACGUUGUGGUAUAUUACCUGGUA [A31G A36C] | 0.363
GUGCUCUUUCACGUGCGCGUGAAAGAGAGAAGUGAACCAGAGCAACACACGUUGUGGUAUAUUACCUGGUA [C3G A43C] | 0.168
GUCCUCUUGCACGUGCGCGUGAAAGAGAGAAGUGAACCAGAGAAUCACACGUUGUGGUAUAUUACCUGGUA [U9G A45U] | 0.0827
